# Results: publication PMC4860565, “N6-Methyladenosine: a conformational marker that regulates the substrate specificity of human demethylases FTO and ALKBH5”
# T1: YTHDF2 (Homo sapiens, UniProt Q9Y5A9 385-576)
# T1 sequence: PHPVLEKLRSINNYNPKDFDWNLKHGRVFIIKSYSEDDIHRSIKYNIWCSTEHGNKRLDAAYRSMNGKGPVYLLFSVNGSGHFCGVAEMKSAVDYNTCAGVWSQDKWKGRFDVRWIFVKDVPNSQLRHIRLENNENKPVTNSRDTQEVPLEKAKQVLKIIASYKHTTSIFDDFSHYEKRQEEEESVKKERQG
# B1: 11 (ssRNA)
# RNA: GCGGACUCCAGAUG
# modifications: m6A at position 5
# B2: 25 (structured_RNA)
# RNA: GCGGACUCCACCGC
# modifications: m6A at position 5
# B3: biotin-11 (ssRNA)
# RNA: GCGGACUCCAGAUG
# modifications: m6A at position 5
# B4: biotin-15 (dsRNA)
# RNA 1: GCGGACUAGUCCGC
# RNA 2: GCGGACUAGUCCGC
# modifications: m6A at position 5 of each strand
# Assays:
# FTO [1] = target: T2, FTO (Homo sapiens, UniProt Q9C0B1 1-505); assay: MST (label-free); 1 mM NiSO4, 500 uM NOG; MST: 50 mM Tris pH 7.5, 150 mM NaCl, 0.05% Tween 20, 25 C; EMSA: 10 mM HEPES pH 7.3, 5% glycerol, 20 mM KCl, 1 mM MgCl2, 1 mM DTT, RNasin, 4 nM RNA, 4 C; conditions: protein: recombinant, tags: His6 (pNIC28-Bsa4)
# T2 sequence (Q9C0B1 whole entry): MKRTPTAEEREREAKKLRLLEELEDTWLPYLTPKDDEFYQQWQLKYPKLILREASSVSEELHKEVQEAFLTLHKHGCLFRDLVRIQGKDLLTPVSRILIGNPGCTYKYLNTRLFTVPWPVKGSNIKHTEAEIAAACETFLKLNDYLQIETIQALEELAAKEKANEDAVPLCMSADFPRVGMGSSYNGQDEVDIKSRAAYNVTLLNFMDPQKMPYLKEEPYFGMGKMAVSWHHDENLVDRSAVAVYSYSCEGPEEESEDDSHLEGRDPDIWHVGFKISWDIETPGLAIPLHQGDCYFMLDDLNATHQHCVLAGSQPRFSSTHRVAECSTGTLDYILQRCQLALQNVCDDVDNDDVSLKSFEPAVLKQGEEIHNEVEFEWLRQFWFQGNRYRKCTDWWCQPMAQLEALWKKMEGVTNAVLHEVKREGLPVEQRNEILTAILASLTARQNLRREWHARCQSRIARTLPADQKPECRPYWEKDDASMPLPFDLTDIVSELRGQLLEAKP
# ALKBH5 [2] = target: T3, ALKBH5 (Homo sapiens, UniProt Q6P6C2 66-292); assay: MST (label-free); 1 mM MnCl2, NOG presumably as for FTO; MST: 50 mM Tris pH 7.5, 150 mM NaCl, 0.05% Tween 20, 25 C; EMSA: 10 mM HEPES pH 7.3, 5% glycerol, 20 mM KCl, 1 mM MgCl2, 1 mM DTT, RNasin, 4 nM RNA, 4 C; conditions: protein: recombinant, tags: His6 (pNIC28-Bsa4)
# T3 sequence (Q6P6C2 66-292): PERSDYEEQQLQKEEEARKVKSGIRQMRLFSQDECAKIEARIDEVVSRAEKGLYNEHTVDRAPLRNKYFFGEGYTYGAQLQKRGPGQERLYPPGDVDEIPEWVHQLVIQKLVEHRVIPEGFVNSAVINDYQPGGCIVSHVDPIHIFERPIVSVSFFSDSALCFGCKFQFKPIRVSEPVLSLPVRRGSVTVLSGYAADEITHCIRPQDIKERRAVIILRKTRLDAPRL
# YTHDF2 = target: T1, YTHDF2; assay: EMSA; 1 mM MgCl2; up to 5 uM protein; MST: 50 mM Tris pH 7.5, 150 mM NaCl, 0.05% Tween 20, 25 C; EMSA: 10 mM HEPES pH 7.3, 5% glycerol, 20 mM KCl, 1 mM MgCl2, 1 mM DTT, RNasin, 4 nM RNA, 4 C; conditions: protein: recombinant; tags: GST (pGEX-6P-1); label: 3' biotin; random coil single strand
# ALKBH5 [3] = target: T3, ALKBH5; assay: EMSA; 1 mM MgCl2; no binding at 1250-fold excess protein (5 uM); MST: 50 mM Tris pH 7.5, 150 mM NaCl, 0.05% Tween 20, 25 C; EMSA: 10 mM HEPES pH 7.3, 5% glycerol, 20 mM KCl, 1 mM MgCl2, 1 mM DTT, RNasin, 4 nM RNA, 4 C; conditions: protein: recombinant; tags: His6 (pNIC28-Bsa4); label: 3' biotin; blunt self-complementary duplex, 2 copies of one strand
# FTO [4] = target: T2, FTO; assay: as above; conditions: protein: recombinant; tags: His6 (pNIC28-Bsa4); label: 3' biotin; blunt self-complementary duplex, 2 copies of one strand
binder,measurement,setting,value
B1,Kd,FTO [1]; random coil single strand,97.1 ± 6.66 µM
same,Kd,ALKBH5 [2]; random coil single strand,52.9 ± 2.21 µM
B2,Kd,FTO [1]; hairpin,91.3 ± 4.65 µM
same,Kd,ALKBH5 [2]; hairpin,75.3 ± 2.01 µM
B3,binding result,YTHDF2,binds
B4,binding result,ALKBH5 [3],no binding
same,binding result,FTO [4],no binding
